T1: rKv4.2N (Rattus norvegicus, UniProt Q63881)
T1 construct: the N-terminal domains of Kv4.3, Kv4.2 were expressed as “baits” (Kv4.3N, Kv4.2N, respectively); expressed in transfected cells; host or cells: yeast HF7c (baits), mated with Y187 (fish)
T1 sequence (Q63881 1-184 limits assumed): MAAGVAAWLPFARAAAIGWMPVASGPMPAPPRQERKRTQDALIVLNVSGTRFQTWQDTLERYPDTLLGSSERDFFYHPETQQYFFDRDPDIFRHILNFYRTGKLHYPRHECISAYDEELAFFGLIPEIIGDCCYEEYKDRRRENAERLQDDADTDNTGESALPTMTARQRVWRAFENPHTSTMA

T2: rKv4.3N (Rattus norvegicus, UniProt Q62897)
T2 construct: expressed in transfected cells; host or cells: yeast HF7c (bait), mated with Y187 (fish)
T2 sequence (Q62897 1-180): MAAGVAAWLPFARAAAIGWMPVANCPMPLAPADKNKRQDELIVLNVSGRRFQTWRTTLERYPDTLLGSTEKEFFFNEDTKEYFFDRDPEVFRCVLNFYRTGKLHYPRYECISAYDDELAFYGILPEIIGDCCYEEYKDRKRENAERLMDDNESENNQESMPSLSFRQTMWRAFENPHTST

B1: Rat 19r: identical to Rat phosphatidylinositol (PTDINS) transfer protein alpha (protein)
chain: MVLLKEYRVILPVSVDEYQVGQLYSVAEASKNETGGGEGVEVLVNEPYEKDDGEKGQYTHKIYHLQSKVPTFVRMLAPEGALNIHEKAWNAYPYCRTVITNEYMKEDFLIKIETWHKPDLGTQENVHKLEPEAWKHVEAIYIDIADRSQVLSKDYKAEEDPAKFKSIKTGRGPLGPNWKQELVNQKDCPYMCAYKLVTVKFKWWGLQNKVENFIHKQEKRLFTNFHRQLFCWLDKWVDLTMDDIRRMEEETKRQLDEMRQKDPVKGMTADD
B2: Rat 7q: identical to RAB2 (rat RAS-related protein) (protein)
chain: MAYAYLFKYIIIGDTGVGKSCLLLQFTDKRFQPVHDLTIGVEFGARMITIDGKQIKLQIWDTAGQESFRSITRSYYRGAAGALLVYDITRRDTFNHLTTWLEDARQHSNSNMVIMLIGNKSDLESRREVKKEEGEAFAREHGLIFMETSAKTASNVEEAFINTAKEIYEKIQEGVFDINNEANGIKIGPQHAATNASHGGNQGGQQAGGGCC

How the values were obtained:
[1] = target: T1, rKv4.2N; experiment: Yeast two-hybrid binding and specificity test, Kv4.2 N-terminal bait
Experimental: (§1) Two-hybrid screens were carried out essentially as described in Bartel, P. et al. (1993) “Using the Two-Hybrid System to Detect Polypeptide-Polypeptide Interactions” in Cellular Interactions in Development: A Practical Approach, Hartley, D. A. ed. Oxford University Press, Oxford, pp. 153-179, with a bait-library pair of rkv4.3 bait-rat mid brain library. A filter disk beta-galactosidase (beta-gal) assay was performed essentially as previously described (Brill et al. (1994) Mol. Biol. Cell. 5:297-312). Clones that were positive for both reporter gene activity (His and beta-galactosidase) were scored and fish, plasmids were isolated from yeast, transformed into E. coli strain KC8, DNA plasmids were purified and the resulting plasmids were sequenced by conventional methods (Sanger F. et al. (1977) PNAS, 74: 5463-67).
(§2) Positive interactor clones were subjected to a binding specificity test where they were exposed to a panel of related and unrelated baits by a mating scheme previously described (Finley R. L. Jr. et al. (1994) PNAS, 91(26):12980-12984). Briefly, positive fish plasmids were transformed into Y187 and the panel of baits were transformed into HF7c. Transformed fish and bait cells were streaked out as stripes on selective medium plates, mated on YPAD plates, and tested for reporter gene activity.

[2] = target: T3, rKv1.1N (Rattus norvegicus, UniProt P10499); experiment: Yeast two-hybrid binding and specificity test, Kv1.1 N-terminal bait
T3 construct: expressed in transfected cells; host or cells: yeast HF7c (baits), mated with Y187 (fish)
T3 sequence (P10499 1-164 limits assumed): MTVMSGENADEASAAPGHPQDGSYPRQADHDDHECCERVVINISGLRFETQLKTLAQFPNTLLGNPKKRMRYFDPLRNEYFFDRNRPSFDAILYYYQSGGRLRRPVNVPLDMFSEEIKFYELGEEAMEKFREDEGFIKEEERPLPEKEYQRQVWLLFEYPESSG
Experimental: as §1, §2

[3] = target: T2, rKv4.3N; experiment: Yeast two-hybrid binding and specificity test, Kv4.3 N-terminal bait; conditions: for preference between rKv4.3N and rKv4.2N in yeast two-hybrid assay: rKv4.3N versus rKv4.2N
Experimental: The first 180 amino acids of rKv4.3 (described in Serdio P. et al. (1996) J. Neurophys 75:2174-2179) were amplified by PCR and cloned in frame into pGBT9 resulting in plasmid pFWA2, (hereinafter “bait”). This bait was transformed into the two-hybrid screening strain HF7c and tested for expression and self-activation. The bait was validated for expression by Western blotting.
as §1, §2

Molecule | binding to rKv4.2N in yeast two-hybrid assay [1] | binding to rKv1.1N in yeast two-hybrid assay [2] | binding to rKv4.3N in yeast two-hybrid assay [3] | preference between rKv4.3N and rKv4.2N in yeast two-hybrid assay [3]
B1 | binds | does not bind | binds | slight preference for rKv4.3N
B2 | binds | does not bind | binds | same strength

Reference: patent US7556938B1, “Nucleic acids encoding potassium channel interactors” (Millennium Pharmaceuticals, Inc., priority 1998, dated 2009)
